Primed or numbered codes have the meaning given here. No end group written: not given here. FITC′ = fluorescein isothiocyanate
Target: PEX5 TPR domain (C-terminal cargo-binding TPR domain of human PEX5L) (human, UniProt P50542-1 315-639)
Assay: fluorescence polarisation

Binder: {FITC′}-SAPKIPSWQIPVKSPSPS [N-terminal FITC conjugated SAPKIPSWQIPVKSPSPS PEX14 peptide]
- Kd: 250 µM

— doi:10.1101/2023.08.08.552478 (bioRxiv, 2023)
